Experimental findings from EP4688000A1 (dated 2026) are described below.

Test [1] deals with T1, mouse integrin α6β4 on cells (CHO-S-murine ITGA6B4-#12; 4T1) (mouse, UniProt A2A863 29-1818; Q61739 24-1091).
T1 construct: whole, on cells; also called mouse ITGB4; CHO-S-mouse ITGB4
As to the kind of experiment: flow cytometry on 4T1 and CHO-S-murine ITGA6B4-#12 cells. (In general: A flow cytometer gives signals particle by particle.)

For test [2], the target named is T2, human integrin α6β1 on CHO-S cells (CHO-S-human ITGA6B1-#24) (human, UniProt P05556 21-798; P23229 24-1130).
T2 construct: whole, on cells; also called human ITGB1
As to the kind of experiment: flow cytometry on CHO-S-human ITGA6B1-#24 cells.

T2 sequence (P05556 21-798, chain 1 of 2): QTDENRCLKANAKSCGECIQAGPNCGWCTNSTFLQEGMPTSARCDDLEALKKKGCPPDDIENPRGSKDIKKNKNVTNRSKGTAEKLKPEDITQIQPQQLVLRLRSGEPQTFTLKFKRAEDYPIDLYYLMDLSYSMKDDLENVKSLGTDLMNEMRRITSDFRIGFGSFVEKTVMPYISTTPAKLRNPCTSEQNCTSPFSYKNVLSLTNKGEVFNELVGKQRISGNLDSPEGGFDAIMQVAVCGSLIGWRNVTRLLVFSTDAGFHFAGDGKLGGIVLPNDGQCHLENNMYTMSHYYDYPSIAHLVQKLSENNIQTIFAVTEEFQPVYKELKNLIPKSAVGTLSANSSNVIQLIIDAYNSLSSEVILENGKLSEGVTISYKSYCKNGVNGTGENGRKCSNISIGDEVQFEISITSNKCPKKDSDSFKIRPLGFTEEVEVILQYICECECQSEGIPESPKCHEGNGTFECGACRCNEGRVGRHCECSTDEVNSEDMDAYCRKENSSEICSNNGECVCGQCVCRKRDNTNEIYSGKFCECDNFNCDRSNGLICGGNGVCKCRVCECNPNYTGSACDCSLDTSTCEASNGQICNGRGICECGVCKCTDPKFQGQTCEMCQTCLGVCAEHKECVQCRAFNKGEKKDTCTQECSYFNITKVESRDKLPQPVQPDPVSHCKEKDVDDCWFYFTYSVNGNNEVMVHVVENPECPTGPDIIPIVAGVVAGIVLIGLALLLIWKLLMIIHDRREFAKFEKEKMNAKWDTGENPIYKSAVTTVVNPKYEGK
T2 sequence (P23229 24-1130, chain 2 of 2): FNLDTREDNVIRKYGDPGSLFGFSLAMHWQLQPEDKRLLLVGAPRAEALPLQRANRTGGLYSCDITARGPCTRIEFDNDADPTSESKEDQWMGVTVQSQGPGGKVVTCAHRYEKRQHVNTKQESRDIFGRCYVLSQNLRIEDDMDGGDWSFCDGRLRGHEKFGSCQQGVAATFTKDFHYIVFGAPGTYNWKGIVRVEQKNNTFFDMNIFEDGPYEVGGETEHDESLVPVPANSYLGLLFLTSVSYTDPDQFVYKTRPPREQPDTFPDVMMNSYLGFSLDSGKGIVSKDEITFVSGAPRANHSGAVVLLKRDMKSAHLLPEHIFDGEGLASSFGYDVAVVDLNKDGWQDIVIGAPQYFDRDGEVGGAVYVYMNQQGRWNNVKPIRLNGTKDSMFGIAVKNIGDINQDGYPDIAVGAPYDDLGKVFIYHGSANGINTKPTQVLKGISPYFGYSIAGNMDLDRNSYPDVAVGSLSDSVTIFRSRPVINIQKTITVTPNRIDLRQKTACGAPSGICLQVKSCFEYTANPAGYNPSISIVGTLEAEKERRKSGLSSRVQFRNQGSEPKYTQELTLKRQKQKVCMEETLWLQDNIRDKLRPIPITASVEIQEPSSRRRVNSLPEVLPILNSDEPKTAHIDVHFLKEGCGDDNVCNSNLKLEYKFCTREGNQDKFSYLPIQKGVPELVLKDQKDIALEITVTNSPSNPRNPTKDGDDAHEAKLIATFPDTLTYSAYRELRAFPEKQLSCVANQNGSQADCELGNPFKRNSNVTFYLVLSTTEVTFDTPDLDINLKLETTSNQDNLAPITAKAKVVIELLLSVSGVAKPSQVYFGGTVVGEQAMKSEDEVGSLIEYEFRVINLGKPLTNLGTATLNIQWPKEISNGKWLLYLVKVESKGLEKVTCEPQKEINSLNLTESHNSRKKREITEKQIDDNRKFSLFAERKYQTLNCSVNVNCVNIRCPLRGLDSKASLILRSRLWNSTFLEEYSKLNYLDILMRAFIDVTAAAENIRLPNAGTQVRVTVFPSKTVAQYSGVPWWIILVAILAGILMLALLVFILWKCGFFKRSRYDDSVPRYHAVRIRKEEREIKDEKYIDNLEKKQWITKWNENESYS
T1 sequence (A2A863 29-1818, chain 1 of 2): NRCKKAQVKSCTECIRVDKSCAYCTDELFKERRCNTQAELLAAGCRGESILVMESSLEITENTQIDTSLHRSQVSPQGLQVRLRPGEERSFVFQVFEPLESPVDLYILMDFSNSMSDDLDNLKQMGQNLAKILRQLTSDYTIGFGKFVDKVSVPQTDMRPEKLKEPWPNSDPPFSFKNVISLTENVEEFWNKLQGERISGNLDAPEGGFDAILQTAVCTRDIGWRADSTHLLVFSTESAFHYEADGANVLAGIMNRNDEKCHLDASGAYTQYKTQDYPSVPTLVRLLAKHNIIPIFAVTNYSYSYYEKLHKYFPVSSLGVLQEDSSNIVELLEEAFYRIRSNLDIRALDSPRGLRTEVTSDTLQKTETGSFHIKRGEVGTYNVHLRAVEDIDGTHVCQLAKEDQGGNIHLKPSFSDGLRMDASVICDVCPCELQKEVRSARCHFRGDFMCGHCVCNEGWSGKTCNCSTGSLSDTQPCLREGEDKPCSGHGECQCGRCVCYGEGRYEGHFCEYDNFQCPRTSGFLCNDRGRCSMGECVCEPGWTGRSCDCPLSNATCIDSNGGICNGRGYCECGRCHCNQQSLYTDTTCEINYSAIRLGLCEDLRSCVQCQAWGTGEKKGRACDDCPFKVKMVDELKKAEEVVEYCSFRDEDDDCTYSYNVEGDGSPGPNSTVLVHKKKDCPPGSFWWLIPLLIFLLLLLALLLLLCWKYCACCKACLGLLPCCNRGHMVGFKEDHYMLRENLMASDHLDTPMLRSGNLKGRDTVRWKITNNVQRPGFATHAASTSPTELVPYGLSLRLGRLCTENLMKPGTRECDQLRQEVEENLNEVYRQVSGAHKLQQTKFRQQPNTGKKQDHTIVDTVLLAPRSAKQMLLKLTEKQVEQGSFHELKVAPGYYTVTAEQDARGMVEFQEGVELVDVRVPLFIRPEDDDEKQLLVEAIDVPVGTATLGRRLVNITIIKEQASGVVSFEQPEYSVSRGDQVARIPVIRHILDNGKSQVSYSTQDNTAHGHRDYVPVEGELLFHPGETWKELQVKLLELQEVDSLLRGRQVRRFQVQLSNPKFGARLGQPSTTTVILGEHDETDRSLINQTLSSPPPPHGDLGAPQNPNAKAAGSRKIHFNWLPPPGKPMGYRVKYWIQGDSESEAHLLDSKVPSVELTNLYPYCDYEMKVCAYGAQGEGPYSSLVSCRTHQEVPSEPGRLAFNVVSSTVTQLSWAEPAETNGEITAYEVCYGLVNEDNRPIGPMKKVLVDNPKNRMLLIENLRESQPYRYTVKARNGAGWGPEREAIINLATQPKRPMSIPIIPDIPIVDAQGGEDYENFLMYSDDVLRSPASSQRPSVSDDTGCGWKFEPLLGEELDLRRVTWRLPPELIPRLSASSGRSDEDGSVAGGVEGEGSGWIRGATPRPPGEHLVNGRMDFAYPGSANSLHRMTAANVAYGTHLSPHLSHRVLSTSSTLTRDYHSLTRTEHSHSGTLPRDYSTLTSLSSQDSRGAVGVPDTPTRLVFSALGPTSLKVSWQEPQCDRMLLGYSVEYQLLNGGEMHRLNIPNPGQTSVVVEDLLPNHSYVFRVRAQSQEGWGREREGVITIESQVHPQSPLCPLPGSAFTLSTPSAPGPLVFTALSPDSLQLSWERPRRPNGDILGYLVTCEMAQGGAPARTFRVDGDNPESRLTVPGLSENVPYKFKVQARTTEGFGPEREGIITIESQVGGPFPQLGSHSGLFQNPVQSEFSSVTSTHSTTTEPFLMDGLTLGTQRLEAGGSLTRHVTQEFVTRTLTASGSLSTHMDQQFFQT
T1 sequence (Q61739 24-1091, chain 2 of 2): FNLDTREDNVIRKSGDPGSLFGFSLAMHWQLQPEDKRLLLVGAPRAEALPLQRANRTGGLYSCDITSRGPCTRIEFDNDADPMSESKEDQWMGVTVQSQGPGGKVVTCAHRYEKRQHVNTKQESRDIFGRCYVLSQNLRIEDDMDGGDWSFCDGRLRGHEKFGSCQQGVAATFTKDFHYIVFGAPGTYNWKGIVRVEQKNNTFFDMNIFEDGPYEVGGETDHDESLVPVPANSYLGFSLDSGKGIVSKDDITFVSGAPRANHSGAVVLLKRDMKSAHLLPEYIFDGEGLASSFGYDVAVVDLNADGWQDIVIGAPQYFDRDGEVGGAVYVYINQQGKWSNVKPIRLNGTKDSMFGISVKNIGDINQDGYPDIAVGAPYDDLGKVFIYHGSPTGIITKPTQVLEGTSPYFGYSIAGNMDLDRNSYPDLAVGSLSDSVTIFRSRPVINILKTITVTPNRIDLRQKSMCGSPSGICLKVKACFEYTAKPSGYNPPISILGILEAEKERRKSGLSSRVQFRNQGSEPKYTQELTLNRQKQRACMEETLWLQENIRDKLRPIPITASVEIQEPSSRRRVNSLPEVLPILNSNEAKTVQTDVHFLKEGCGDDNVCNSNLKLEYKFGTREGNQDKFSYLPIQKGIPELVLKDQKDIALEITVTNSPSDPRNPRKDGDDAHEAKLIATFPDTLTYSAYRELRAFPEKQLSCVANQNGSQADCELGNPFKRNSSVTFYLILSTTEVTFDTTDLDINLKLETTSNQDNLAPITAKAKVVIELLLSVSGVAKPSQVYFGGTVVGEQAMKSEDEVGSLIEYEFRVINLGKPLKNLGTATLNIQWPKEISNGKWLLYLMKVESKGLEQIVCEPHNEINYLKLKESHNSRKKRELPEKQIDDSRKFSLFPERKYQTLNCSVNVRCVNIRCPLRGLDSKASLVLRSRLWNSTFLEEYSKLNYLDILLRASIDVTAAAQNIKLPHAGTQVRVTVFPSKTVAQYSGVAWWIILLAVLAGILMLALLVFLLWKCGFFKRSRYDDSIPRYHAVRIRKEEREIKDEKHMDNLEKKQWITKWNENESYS

B1: anti-ITGB4 antibody 008 (parental clone) (antibody, V domains shown)
VH: QVQLKQSGPSLVQPSQSLSITCTVSGFSLTSYGVHWFRQSPGKGLEWLGVIWRGGNTDYNAAFMSRLSITKDNSKSQVFFKMNSLQPDDTAIYYCVKNYRFGGSAYWGQGTLVTVSA
VL: DIQMTQTTSSLSASLGDRVTISCRASQDISNHLNWYQQKPDGTVKLLIYYTSTLHSGVPSRFSGSGSGTDYSLTISNLEPEDIATYYCQQDLNLPWTFGGGTKLEIK
notes: In the assays it was captured on anti-human IgG Fc sensors and detected with anti-human IgG, so the tested form carries a human Fc; also called 008 clone
B1: the binding result in test [1] and in test [2] was “no binding” throughout.
